± gives the uncertainty stated by the source.
Assay: self-splicing fitness, log relative to wild type (ln ratio); higher = more splicing; Tetrahymena group I intron in knt gene, E. coli kanamycin selection, DiMSum; sequences stand for … in CUCUCU…GGAGGGAAAAGUUAUCAGGCAUGCACCUGGUAGCUAGUCUUUAAACCAAUAGAUUGCAUCGGUUUAAAAGGCAAGACCGUCAAAUUGCGGGAAAGGGGUCAACAGCCGUUCAGUACCAAGUCUCAGGGGAAACUUUGAGAUGGCCUUGCAAAGGGUAUGGUAAUAAGCUGACGGACAUGGUCCUAACCACGCAGCCAAGUCCUAAGUCAACAGAUCUUCUGUUGAUAUGGAUGCAGUUCACAGACUAAAUGUCGGUCGGGGAAGAUGUAUUCUUCUCAUAAGAUAUAGUCGGACCUCUCCUUAAUGGGAGCUAGCGGAUGAAGUGAUGCAACACUGGAGCCGCUGGGAACUAAUUUGUAUGCGAAAGUAUAUUGAUUAGUUUUGGAGUACUCGUGGUCG
How it was run: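 The eight P1ex-region nucleotides of an intron in the knt kanamycin-resistance gene on pET-22b(+) were all randomised and the library put into E. coli BL21(DE3). Six replicate transformations were grown overnight at 37°C or 30°C on LB agar with or without 25 μg/mL kanamycin, together with 100 μg/mL carbenicillin, 50 μM IPTG and 0.2% rhamnose. Colonies were pooled and amplicon-sequenced on an Illumina HiSeq 2500. Fitness from DiMSum is the error-weighted combination of wild-type-normalised replicate fold changes, kanamycin over none.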

Sequence	self-splicing fitness (ln) (30 °C)	self-splicing fitness (ln) (37 °C)
UCCAAGCAAUAUUACGGUUU	-3.75 ± 0.2	-2.48 ± 0.21
UCCAAGCAAUAUUACGUCUC	-3.53 ± 0.32	-2.02 ± 0.46
UCCAAGCAAUAUUACGUGUC	-3.42 ± 0.12	-2.94 ± 0.12
UCCAAGCAAUAUUACGUUCC	–	-1.57 ± 0.31
UCCCAGCAAUAUUACGAAGG	-3.68 ± 0.23	-1.63 ± 0.23
UCCCAGCAAUAUUACGACAG	–	-3.55 ± 0.37
UCCCAGCAAUAUUACGACCA	-1.65 ± 0.13	-1.06 ± 0.23
UCCCAGCAAUAUUACGAGAC	-3.6 ± 0.28	-0.749 ± 0.16
UCCCAGCAAUAUUACGAGAU	-3.57 ± 0.23	-2.66 ± 0.17
UCCCAGCAAUAUUACGAGUA	-1 ± 0.072	-0.558 ± 0.069
UCCCAGCAAUAUUACGAUCA	-1.48 ± 0.14	-0.722 ± 0.14
UCCCAGCAAUAUUACGAUUC	-4.67 ± 0.32	-1.97 ± 0.14
UCCCAGCAAUAUUACGCCGG	-2.84 ± 0.28	-1.21 ± 0.3
UCCCAGCAAUAUUACGCGCU	-4.15 ± 0.33	-2.84 ± 0.34
UCCCAGCAAUAUUACGCUAU	-4.27 ± 0.21	-1.31 ± 0.11
UCCCAGCAAUAUUACGGCAU	-2.77 ± 0.11	-1.01 ± 0.11
UCCCAGCAAUAUUACGGCUA	-1.31 ± 0.12	-1.19 ± 0.12
UCCCAGCAAUAUUACGUCCG	–	-2.06 ± 0.47
UCCCAGCAAUAUUACGUCGG	-2.16 ± 0.13	-2.59 ± 0.23
UCCCAGCAAUAUUACGUGGG	-3.37 ± 0.1	-2.85 ± 0.16
UCCCAGCAAUAUUACGUGUA	0.0644 ± 0.061	-0.0313 ± 0.073
UCCGAGCAAUAUUACGACAC	-2.81 ± 0.21	-2.33 ± 0.23
UCCGAGCAAUAUUACGACCU	-3.35 ± 0.26	-2.74 ± 0.36
UCCGAGCAAUAUUACGAGAC	-3.1 ± 0.32	-2.81 ± 0.4
UCCGAGCAAUAUUACGCAAU	–	-2.91 ± 0.34
UCCGAGCAAUAUUACGCACG	-3.01 ± 0.43	–

Sequence	self-splicing fitness (ln) (30 °C)	self-splicing fitness (ln) (37 °C)
UCCGAGCAAUAUUACGCCGC	–	-2.15 ± 0.49
UCCGAGCAAUAUUACGCCGG	-2.87 ± 0.36	-2.15 ± 0.28
UCCGAGCAAUAUUACGCCUU	-2.35 ± 0.35	–
UCCGAGCAAUAUUACGCGAG	–	-1.2 ± 0.24
UCCGAGCAAUAUUACGGAGA	-1.83 ± 0.18	-1.7 ± 0.27
UCCGAGCAAUAUUACGGAGU	-3.73 ± 0.21	-2.74 ± 0.22
UCCGAGCAAUAUUACGGCGC	–	-3.02 ± 0.37
UCCGAGCAAUAUUACGGCUG	-2.83 ± 0.19	-1.6 ± 0.29
UCCGAGCAAUAUUACGGGAC	-3.59 ± 0.18	-2.2 ± 0.15
UCCGAGCAAUAUUACGGGAU	-3.44 ± 0.33	–
UCCGAGCAAUAUUACGUCAA	-2.89 ± 0.26	-2.27 ± 0.36
UCCGAGCAAUAUUACGUCGA	-1.21 ± 0.16	-0.238 ± 0.13
UCCGAGCAAUAUUACGUGGA	-2.47 ± 0.17	-2.52 ± 0.19
UCCGAGCAAUAUUACGUGUA	-2.55 ± 0.086	-1.9 ± 0.082
UCCGAGCAAUAUUACGUUUC	-3.39 ± 0.22	-2.11 ± 0.34
UCCUAGCAAUAUUACGAAGU	-1.47 ± 0.1	-0.726 ± 0.14
UCCUAGCAAUAUUACGACAA	–	-2.04 ± 0.29
UCCUAGCAAUAUUACGACGC	-2.35 ± 0.17	-2.02 ± 0.2
UCCUAGCAAUAUUACGAGAU	-2.85 ± 0.16	-1.7 ± 0.19
UCCUAGCAAUAUUACGAUAA	-3.25 ± 0.29	-1.56 ± 0.17
UCCUAGCAAUAUUACGAUAC	-3.42 ± 0.35	-2.41 ± 0.44
UCCUAGCAAUAUUACGCACG	-3.34 ± 0.37	-1.87 ± 0.47
UCCUAGCAAUAUUACGCAGA	-1.87 ± 0.2	-0.401 ± 0.15
UCCUAGCAAUAUUACGCCCC	-2.75 ± 0.45	-2.12 ± 0.42
UCCUAGCAAUAUUACGCCGC	-3.1 ± 0.26	-3.49 ± 0.35
UCCUAGCAAUAUUACGCGGC	-3.42 ± 0.44	–

Sequence	self-splicing fitness (ln) (30 °C)	self-splicing fitness (ln) (37 °C)
UCCUAGCAAUAUUACGCUGU	-2.52 ± 0.22	-2.23 ± 0.27
UCCUAGCAAUAUUACGCUUG	-3.79 ± 0.21	-2.46 ± 0.17
UCCUAGCAAUAUUACGUACU	-3.41 ± 0.3	-2 ± 0.26
UCCUAGCAAUAUUACGUGAG	-2.64 ± 0.14	-1.94 ± 0.17
UCCUAGCAAUAUUACGUUCA	-2.91 ± 0.35	-2.38 ± 0.25
UCGAAGCAAUAUUACGACAA	-1.59 ± 0.14	-1.07 ± 0.15
UCGAAGCAAUAUUACGAGCU	-3.7 ± 0.47	-1.24 ± 0.39
UCGAAGCAAUAUUACGAGGC	–	-2.15 ± 0.49
UCGAAGCAAUAUUACGAUCA	-1.46 ± 0.18	-0.436 ± 0.23
UCGAAGCAAUAUUACGCAAG	-2.17 ± 0.12	-1.6 ± 0.13
UCGAAGCAAUAUUACGCAUA	-3.01 ± 0.36	-2.72 ± 0.26
UCGAAGCAAUAUUACGCUGC	-3.55 ± 0.43	-1.49 ± 0.4
UCGAAGCAAUAUUACGCUUG	–	-2.64 ± 0.26
UCGAAGCAAUAUUACGGACC	-3.46 ± 0.33	-2.02 ± 0.34
UCGAAGCAAUAUUACGGAUU	-3.96 ± 0.32	-2.56 ± 0.25
UCGAAGCAAUAUUACGGCAC	-1.74 ± 0.23	-1.95 ± 0.32
UCGAAGCAAUAUUACGGCAG	-2.11 ± 0.097	-0.963 ± 0.11
UCGAAGCAAUAUUACGGGAC	-3.19 ± 0.47	-3.17 ± 0.33
UCGAAGCAAUAUUACGGUAC	-4.43 ± 0.39	–
UCGAAGCAAUAUUACGGUUG	-1.65 ± 0.097	-0.93 ± 0.14
UCGAAGCAAUAUUACGUCUC	-2.49 ± 0.15	-2.28 ± 0.32
UCGAAGCAAUAUUACGUCUU	-3.87 ± 0.14	-2.29 ± 0.15
UCGAAGCAAUAUUACGUGCC	-2.86 ± 0.42	–
UCGAAGCAAUAUUACGUGGC	–	-2.78 ± 0.23
UCGCAGCAAUAUUACGAACG	-2.63 ± 0.39	-1.05 ± 0.3
UCGCAGCAAUAUUACGACGU	-1.46 ± 0.076	-0.706 ± 0.074

Sequence	self-splicing fitness (ln) (30 °C)	self-splicing fitness (ln) (37 °C)
UCGCAGCAAUAUUACGAGGA	-2.88 ± 0.19	-0.7 ± 0.12
UCGCAGCAAUAUUACGAGUA	-2.36 ± 0.14	-0.752 ± 0.12
UCGCAGCAAUAUUACGAGUU	-4.47 ± 0.28	-1.95 ± 0.23
UCGCAGCAAUAUUACGCCGC	–	-1.21 ± 0.32
UCGCAGCAAUAUUACGCCUG	-3.14 ± 0.23	-1.28 ± 0.2
UCGCAGCAAUAUUACGCGUC	-3.42 ± 0.16	-1.8 ± 0.14
UCGCAGCAAUAUUACGCUGC	-2.62 ± 0.49	-0.264 ± 0.26
UCGCAGCAAUAUUACGCUGU	-3.13 ± 0.14	-3.02 ± 0.19
UCGCAGCAAUAUUACGGAAA	-2.71 ± 0.21	-1.57 ± 0.17
UCGCAGCAAUAUUACGGAAC	-1.51 ± 0.32	-2.53 ± 0.41
UCGCAGCAAUAUUACGGACC	-3.5 ± 0.41	-2.69 ± 0.33
UCGCAGCAAUAUUACGGAGC	-3.54 ± 0.35	-1.89 ± 0.26
UCGCAGCAAUAUUACGGAGU	-2.32 ± 0.21	-1.92 ± 0.23
UCGCAGCAAUAUUACGGCAC	-1.94 ± 0.34	-2.67 ± 0.29
UCGCAGCAAUAUUACGGCCA	-0.107 ± 0.091	0.246 ± 0.11
UCGCAGCAAUAUUACGGGGC	-2.52 ± 0.23	-2.63 ± 0.27
UCGCAGCAAUAUUACGUACU	–	-1.86 ± 0.32
UCGCAGCAAUAUUACGUCCG	-0.808 ± 0.078	-0.0675 ± 0.1
UCGGAGCAAUAUUACGAAAU	-3.14 ± 0.49	–
UCGGAGCAAUAUUACGACUA	-1.22 ± 0.37	-1.83 ± 0.38
UCGGAGCAAUAUUACGAGCU	-2.89 ± 0.27	–
UCGGAGCAAUAUUACGAUAC	-3.5 ± 0.35	-0.757 ± 0.33
UCGGAGCAAUAUUACGCUAA	-2.18 ± 0.35	–
UCGGAGCAAUAUUACGGAAA	–	-2.64 ± 0.36
UCGGAGCAAUAUUACGGACA	–	-1.38 ± 0.37

Reference: the supplement of paper PMC7877785
